Source: the supplement of paper PMC7877785
± gives the uncertainty stated by the source.

Experiment: self-splicing fitness, log relative to wild type (ln ratio); higher = more splicing; Tetrahymena group I intron in knt gene, E. coli kanamycin selection, DiMSum; sequences stand for … in CUCUCU…GGAGGGAAAAGUUAUCAGGCAUGCACCUGGUAGCUAGUCUUUAAACCAAUAGAUUGCAUCGGUUUAAAAGGCAAGACCGUCAAAUUGCGGGAAAGGGGUCAACAGCCGUUCAGUACCAAGUCUCAGGGGAAACUUUGAGAUGGCCUUGCAAAGGGUAUGGUAAUAAGCUGACGGACAUGGUCCUAACCACGCAGCCAAGUCCUAAGUCAACAGAUCUUCUGUUGAUAUGGAUGCAGUUCACAGACUAAAUGUCGGUCGGGGAAGAUGUAUUCUUCUCAUAAGAUAUAGUCGGACCUCUCCUUAAUGGGAGCUAGCGGAUGAAGUGAUGCAACACUGGAGCCGCUGGGAACUAAUUUGUAUGCGAAAGUAUAUUGAUUAGUUUUGGAGUACUCGUGGUCG
Method in brief: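 A randomised library covering all eight P1ex-region intron nucleotides was built with the intron in the knt kanamycin-resistance gene on pET-22b(+) and held in E. coli BL21(DE3). Cells were grown overnight at 37°C or 30°C on LB agar, with or without 25 μg/mL kanamycin, plus 100 μg/mL carbenicillin, 50 μM IPTG and 0.2% rhamnose, and pooled colonies were amplicon-sequenced on an Illumina HiSeq 2500. DiMSum fitness is the error-weighted combination of wild-type-normalised replicate fold changes, kanamycin versus none.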

Sequence	self-splicing fitness (ln) (30 °C)	self-splicing fitness (ln) (37 °C)
AGAGAGCAAUAUUACGUUCC	-1.63 ± 0.18	-3.14 ± 0.47
AGAGAGCAAUAUUACGUUCU	-3.19 ± 0.41	-2.26 ± 0.45
AGAUAGCAAUAUUACGAAAG	-2.68 ± 0.2	-1.23 ± 0.21
AGAUAGCAAUAUUACGAACG	-1.12 ± 0.12	-0.323 ± 0.13
AGAUAGCAAUAUUACGAAGC		-1.5 ± 0.28
AGAUAGCAAUAUUACGAGCC	-0.476 ± 0.18	-1.76 ± 0.28
AGAUAGCAAUAUUACGAGUU	-2.21 ± 0.1	-0.588 ± 0.099
AGAUAGCAAUAUUACGAUGG	-2.2 ± 0.14	-3.07 ± 0.22
AGAUAGCAAUAUUACGAUUU	-0.348 ± 0.084	0.527 ± 0.11
AGAUAGCAAUAUUACGCAAU	-1.14 ± 0.1	-1.34 ± 0.15
AGAUAGCAAUAUUACGCAGG	-1.91 ± 0.17	-0.155 ± 0.19
AGAUAGCAAUAUUACGCCCC	-1.27 ± 0.26	-0.202 ± 0.4
AGAUAGCAAUAUUACGCCGA	-1.89 ± 0.3	-0.973 ± 0.3
AGAUAGCAAUAUUACGCCUG	-1.13 ± 0.12	-0.496 ± 0.13
AGAUAGCAAUAUUACGCGGG	-1.66 ± 0.13	-1.68 ± 0.15
AGAUAGCAAUAUUACGCUAA	-1.46 ± 0.15	-0.455 ± 0.15
AGAUAGCAAUAUUACGCUAG	-3.21 ± 0.4	-2.24 ± 0.42
AGAUAGCAAUAUUACGCUGC		-1.26 ± 0.34
AGAUAGCAAUAUUACGGCAA	0.243 ± 0.16	-0.127 ± 0.19
AGAUAGCAAUAUUACGGCAC	-1.52 ± 0.16	-0.639 ± 0.23

Sequence	self-splicing fitness (ln) (30 °C)	self-splicing fitness (ln) (37 °C)
AGAUAGCAAUAUUACGGCCC	-0.127 ± 0.19	-0.606 ± 0.23
AGAUAGCAAUAUUACGGCGU	-0.0254 ± 0.091	0.663 ± 0.1
AGAUAGCAAUAUUACGGCUU	-0.346 ± 0.11	-0.141 ± 0.097
AGAUAGCAAUAUUACGGGUG	-2.83 ± 0.2	-1.88 ± 0.21
AGAUAGCAAUAUUACGGUGG	-1.66 ± 0.12	-2.23 ± 0.16
AGAUAGCAAUAUUACGUCCC	-1.36 ± 0.2	0.133 ± 0.32
AGAUAGCAAUAUUACGUCGA	-0.721 ± 0.13	0.375 ± 0.13
AGAUAGCAAUAUUACGUCGC	-3.24 ± 0.39	-1.21 ± 0.23
AGAUAGCAAUAUUACGUCUU	-2.52 ± 0.14	-2.07 ± 0.17
AGAUAGCAAUAUUACGUUAG	-4.56 ± 0.31	-0.345 ± 0.15
AGAUAGCAAUAUUACGUUCA	-0.78 ± 0.13	-0.5 ± 0.15
AGAUAGCAAUAUUACGUUUC	-3.56 ± 0.29	
AGCAAGCAAUAUUACGACAU	-0.211 ± 0.011	0.0321 ± 0.032
AGCAAGCAAUAUUACGAGAG	-3.11 ± 0.2	-2.42 ± 0.25
AGCAAGCAAUAUUACGAGGA	-2.86 ± 0.17	-2.29 ± 0.2
AGCAAGCAAUAUUACGAUGU	-1.92 ± 0.068	-0.392 ± 0.076
AGCAAGCAAUAUUACGAUUG	-4.19 ± 0.17	-1.91 ± 0.11
AGCAAGCAAUAUUACGCCUU	-1.24 ± 0.1	0.351 ± 0.11
AGCAAGCAAUAUUACGCGGU	-3.33 ± 0.16	-1.66 ± 0.17
AGCAAGCAAUAUUACGGCCA	-0.0326 ± 0.088	-0.0437 ± 0.12

Sequence	self-splicing fitness (ln) (30 °C)	self-splicing fitness (ln) (37 °C)
AGCAAGCAAUAUUACGGCGU	-0.229 ± 0.078	0.0744 ± 0.1
AGCAAGCAAUAUUACGGGCA	-0.263 ± 0.071	0.111 ± 0.084
AGCAAGCAAUAUUACGGUGG	-2.65 ± 0.1	-2.32 ± 0.15
AGCAAGCAAUAUUACGUCAA	-1.76 ± 0.13	-1.13 ± 0.11
AGCAAGCAAUAUUACGUCCC	-0.545 ± 0.1	-0.16 ± 0.13
AGCAAGCAAUAUUACGUCUG	-2.22 ± 0.09	-1.15 ± 0.095
AGCAAGCAAUAUUACGUGAA	-2.21 ± 0.068	-1.95 ± 0.11
AGCAAGCAAUAUUACGUGGC	-2.83 ± 0.15	-3.3 ± 0.21
AGCAAGCAAUAUUACGUGUU	-3.17 ± 0.18	-2.64 ± 0.17
AGCAAGCAAUAUUACGUUCG	-2.66 ± 0.084	-1.44 ± 0.09
AGCCAGCAAUAUUACGAAAU	-3.02 ± 0.11	-2.17 ± 0.13
AGCCAGCAAUAUUACGACCG	-3.83 ± 0.32	-1.89 ± 0.24
AGCCAGCAAUAUUACGACGC	-1.66 ± 0.14	-0.853 ± 0.16
AGCCAGCAAUAUUACGACGU	-0.356 ± 0.068	-0.487 ± 0.085
AGCCAGCAAUAUUACGAGUA	-3.06 ± 0.22	-1.5 ± 0.16
AGCCAGCAAUAUUACGAUGU	-2.62 ± 0.16	-1.32 ± 0.13
AGCCAGCAAUAUUACGAUUC	-2.67 ± 0.22	-2.49 ± 0.3
AGCCAGCAAUAUUACGCGCC	-2.18 ± 0.15	-1.74 ± 0.23
AGCCAGCAAUAUUACGCGGU	-2.93 ± 0.28	-2.29 ± 0.33
AGCCAGCAAUAUUACGCUGC	-3.09 ± 0.34	-2.59 ± 0.26
